Here are results for 19 sequences from a protein production outcome set (Wang et al. 2014).

This series is described as follows: label from the status in PepcDB records.
“MDNKLPHYSRERLLGEGGMGKVYLAQDNQLQRQVAIKELTYQPKDDEVNHALKEARLLARVNHSNIIQIYNVHDEGDHISLVMEYFNSKTLTQFQQEAYTTLVQKLDLLQQLSAGLAAAHKNGVIHCDLKPSNILVNDQGQLKITDFGIALLASNESQNSEQTASNNPLQFGSLLFMSPEQIKLQAVDYRSDIFSFGIIAYQLMVGSHPFAYGNNGGSATDVAKRICEHTPEHAKNLMLNAPSALTDLLMEMLVKPLEQRTLTAEAIENRLKHIRTALLQAEISEQATMPLSSGSANIAGDDTGQYTQAVHTTLLSQNTQIVQPADNLQASWFKQNYKTVASIALLCLVMILFVGFYNTQEVETKQVVILKPTLADSSLMAPMQQDLVISAVEDALRQAVINTKNMYLISQREVNAITKEYPDDLNKLRQAVGASDIISTTLECDNSRCKVSFSRLVVNDNSSDNLSVKSEKNWLAPVDKFNAIFSTSQTQFASLFPEESEVNQSGLVQRPINENDYRNYIELYSQIKGQGEYSVESLTKLETLLTRSPYLYAAYGLFRETASNLYTDSRDEIHLKRLELVLQNSPPEYRYSVYHAIDSFFVAYKIKELDTAQQQIIEAKNKGASSFVLSELNAILFFSKGQYQKAADTFEEALVLRPSTTLLYNLAFSYWRMGDLSKAEDALNKMLEIIPGNYKAQQLQANIWLLQGKLELAITAYEKIVAALSNGRDLTNLSLAYALNKQYKKSLIYAKKAVDLSPKNRIRRLNLADIEFILGRVKSSNFNYKKVIDAPVDNNKYRYWLDIAQAQLQLNQQNLAIEALNKAKHLAPDNGEVAYTSALVYSVLGERVSAIFEVNKALANKVGSVWFNLPWFDSLCDDKEFELLMVKYNNQKRCRT”: the protein production result was “failed”.
As for “MDNKVILVGGFHEIIELCEDNDIEIAGIIDNYLTNDTYWGYPIIGTDDKAKVLFETYKNVPVLITPDVPHVRYKLYHYYKSIGFQVASLISRDASISRSAIIGEGTIIQRGANLSSNIKIGQMVKVNTNANIMHDCLIGNYVTVAPNAVLLGKVEIDDKAYIGANATLLPSVKIGENVTVGAGSVVTKSVRLEHHHHHH”, the protein production result is listed as “failed”.
Under “MDNPKGIDGFTNLKEKDIATNENKLLRTITADKMIPAFLITPISSQIAGKVIAQVESDIFAHMGKAVLIPKGSKVIGYYSNNNKMGEYRLDIVWSRIITPHGINIMLTNAKGADIKGYNGLVGELIERNFQRYGVPLLLSTLTNGLLIGITSALNNRGNKEGATNFFGDYLLMQLMRQSGMGINQVVNQILRDKSKIAPIVVIREGSRVFISPNTDIFFPIPRENEVIAEFLK” stands “failed”; under “MDPERDALRIALYYALFSILWILSSDYLVALMFQPHVMVRLSVLKGSLFIILTSLLLYFLLKLYLRSLTDKERALRISEHKFRSLFMELPLGVVLMDTYGRILESNPAMGRFHGDSLDGMLIGEIHPDLEPGPDREFMVRMDGRWLRVVITRIEGGFLGIFEDLTDIKNSEEAARRSLEANRTLLAELHHRVKNNLQIISSLISIQSSKMPREHAEIMRSLQLRIKSIAVIHEMLLSSPESSSISFASYVSGLTGYLRDMYQSAAEFELDVPDVEFNIETAVPLGLIVGELVSNSLRHAFTDGGTIRISLEARDDGFILVVADNGGAFPITSAFRNQPASAWSLLRIW”, “failed”; under “MDPLALALLPGIGPKRLLEVLKAEDPLGFLRERFPEAWRHLPEAEAQAERERGRAEALGVRLLGLWEEGFPEGLRALPQPPTHLYLKGELPPEREAVALVGTRRASPWALAFARRLARELAEAGLWVVSGLARGIDREAHLGALEAGGRTLGVLGSALDRVYPPENRPLAQRMDLLSEFPFGTGPKPEFFPRRNRLIAGLCRAVVVVEAPLDSGALITARHALELGKEVLAVPGRPTDERSLGANRLIQDGAYPVLSAEDVLSYLGMSARPKPLPGLSPEEEALYALLQEKKEALPEALAMALGIPPERVLSLLTLLELKGLARALPGGRYGPG”, “failed”.
For “MDPLVSFFDGMAQASWLRPVHDRLKKGTGSWANRAVLDVGCGTGRLLARGVHEAAHLAGVDLSKQMVLATEERLHEHKQCGRLTVVQGDAYDLPFADESFDVCLSTCVMFLLPEPERGMKEMIRVLNGAGVIGMLNPTNKMNHAAAKAYCKKSGITGFEEKTLLQWSNVSTRRHRYTAEQLTHFFKQHGAWVVTHELVLDGLAVVTVASWNKLEHHHHHH” the value was “failed”.
For “MDPSTLMILAIVAVAIIVLAVFFTFVPVMLWISALAAGVKISIFTLVGMRLRRVIPNRVVNPLIKAHKAGLNVGTNQLESHYLAGGNVDRVVNALIAAQRANIELTFERCAAIDLAGRDVLEAVQMSVNPKVIETPFIAGVAMDGIEVKAKARITVRANIERLVGGAGEETIVARVGEGIVSTIGSSDNHKKVLENPDMISQTVLGKGLDSGTAFEILSIDIADVDIGKNIGAILQTDQAEADKNIAQAKAEERRAMAVAQEQEMRARVEEMRAKVVEAEAEVPLAMAEALREGNIGVMDYMNIKNIDADTEMRDSFGKLT” the value was “failed”; for “MDPYFELRLSELKSIPVVTWLQFSIDNAREPGILVQSGQIWALLPPELTEKTRCFAIELGNECMRLKDYDNDDGKRVWLSDDELTRFIEQAETPHQRLAFLLAGRVGLRRSEIIEVCPQDLVDGPTGDHIRVWESYAKRDKYREPPVPQEVVTIAETLAYQQDDDEPLLDVAGSTVYRWVRRAADELEEETGDRGWQYLDVHDLRRTWGTYLLEQGVIPSVVMSFGGWEDWDTFRKHYLGEFSPEAIRRERGKVDFLEGGDESAEVVHPGTMPPASHHTAD”, “failed”.
With “MDQFPESVTENFEYDDLAEACYIGDIVVFGTVFLSIFYSVIFAIGLVGNLLVVFALTNSKKPKSVTDIYLLNLALSDLLFVATLPFWTHYLINEKGLHNAMCKFTTAFFFIGFFGSIFFITVISIDRYLAIVLAANSMNNRTVQHGVTISLGVWAAAILVAAPQFMFTKQKENECLGDYPEVLQEIWPVLRNVETNFLGFLLPLLIMSYCYFRIIQTLFSCKNHKKAKAIKLILLVVIVFFLFWTPYNVMIFLETLKLYDFFPSCDMRKDLRLALSVTETVAFSHCCLNPLIYAFAGEKFRRYLYHLYGKCLAVLCGRSVHVDFSSSESQRSRHGSVLSSNFTYHTSDGDALLLL”, the protein production result was “failed”.
Regarding “MDQIFNKVGSYWLGQKANKQFDSVGNDLNSVSTSIEGGTKWLVNKIKGKMQKPLPELLKEYDLPIGIFPGDATNYEFDEETKKLTVLIPSICEVGYKDSSVLKFTTTVTGHLEKGKLTDVEGIKTKVMIWVKVTSISTDASKVYFTAGMKKSRSRDAYEVQRNGLRVDKF”, the protein production result was “not failed”.
Under “MDQKSTTCLEALAKLSQQREHQTTPATLCSSEHFFANETIYSDATFLSTTEEAFISSPSSSTQGPKPGLKRVSTGPMTRILEGCQNDKPNSPELERVEEAEDNYSGTSSEEAFSQGIPYPHQVGGHGALSSFERGRVLKPAAKKEIDFYNFIYSDNLPSELEWLRTVTPKYFGQRKTQAKAKRILENQVTPFSQTSSVPVNTVLHIDRKDSERNIWKDQVGELVMDTNPWARACLLKELQKEDEVKSFIILEDLTCHLKKPCVLDCKMGTRHYDDDATEEKKKAHIEKATKTTSSSTGIRFTGMQVYKLPSHTFLFHDKYYGRQLKSHELKNELFEFFHNGVLLRVDIIEQFLSKLQWLYQHLENQHYFNFYSSSLLFVYEGDEMATCPISDVRMIDFAHTQRCVEEQQNDGYLFGLSNLIHLMKSLLEDERNEMR” stands “failed”.
For “MDQLWANRAASAEAAITERHLKKLWGLPGTQLGVVAWPPARKYTLFGTWHYWWQAHLLDCLVDAQVRDPQPERTTRIERQLRAHRLRNNLSWVNDYYDDMAWLALAIERAGRLAGVEKPTALRKLCDQFVTAWVPEDGGGIPWRKQDQFFNAPANGPAGIFLARYDDRLRRAQQMADWIDETLIDPDTHLVFDGIKAGSLVRAQYTYCQGVVLGLEVELAVRTQDPRHAPRVRRLVAAVDKEMTTDGVIKGAGGGDGGLFNGILARYLALVATTLPGETPEDIAARDTARTIVLKSARSAWDHRQTVDGLPLFSAFWDRNAEIPTAGGKEAEFVEGAVNASSVPERDLSVQLAGWMLMEAAHSVDSVDAEDAAGDQNGAGDGEVGHDENEDEELEHHHHHH” the value was “not failed”; for “MDQQYDFGRPMGHERRSKEHDVTMRNRKTLDITGVKQVESFDNEEFLLETEMGFLSIRGRNLHMKNLNVEEGLVSIEGKIFDMVYLEQGQGEKSKGFFGKLFKLEHHHHHH”, “failed”.
Under “MDRFLVKGAQGGLLRKQEEQEPTGEEPAVLGGDKESTRKRPRGEAPGNGGHSAGPSWRHIRAEGLDCSYTVLFGKAEADEIFQELEKEVEYFTGALARVQVFGKWHSVPRKQATYGDAGLTYTFSGLTLSPKPWIPVLERIRDHVSGVTGQTFNFVLINRYKDGCDHIGEHRDDERELAPGSPIASVSFGACRDFVFRHKDSRGKSPSRRVAVVRLPLAHGSLLMMNHPTNTHWYHSLPVRKKVLAPRVNLTFRKILLTKK” stands “failed”; under “MDRKKVMVRHSIASLVALGIFGGSRFLYNVIIGRKYGVETLGYTNSIISQAFFVAGFLAFFSVGLGKFTSEFLGKGEYNRIKKLTGISFTFPFLGLILIPLNFHVALLSVLRAIQLTFRSFIYGLHKGELYAYSVILAFPFFLLGFLDGPLLPYYLLLGTIGIFSLSYLVSRSLIGLPGREDTKALIGFSTWAFLGTIAGIFLLQAPYFLTEKLAGNIEAGIVSVALSTAFLLSYLPQILQSAIVPLYAYDYAKGDDKAIKELAENSTLLLSLFSSLLVFGLIFAKSFVEVLFNIKMGAELLLALIGVELYIAYNPLINLLTATKFVKKSAIFSLIGAMVSGIFWILLIPRLGAIGTLLGLTLGYAIIFALVLWESKRKFNINAKILKPTLLAIPLQLLSLKFPYTILIYLITEIKDIEKVMAFLRDIRS”, “failed”; under “MDRLNQIQIILVETSLSANIGSAARAMKTMGLSNLRLVRPKNPLDEQATALAAGAKNILDNAQIFNTFDAAIADCQLIIGTSARLRHLQSTLVEPRECGKLIINNTNQHKIALIFGRERIGLTNEELLKCHYHLNVPTNPEYESLNLAMAVQLACYEIRMAWLELQKKPIIQPLTEEKNYPTAAAMAHFFDHTERLYKELGFIRNDAVMLKLRRLYQRAKLEENELNLLRGMLTAVEKHRIS”, “failed”.
With “MDRMDKAAKINIINANVRNAQTGDYYYNPYKIVNKTFTDTDGKQVTLKIGITGVLPTQILVWDKANLEGKVTVDDPMEAVKTIVPQMKAAGADFILVAAHSGIGDNEYTKNEENEGYQIAGIEGVDAVATGHSHADFPNGDGTSFYAKYPGVDDVNGLINGKPVVMAGKFGDHLGIMDVKLTYTDGKWKVVNSKAKLEKIDTKSDIADKALIDMAAHDHDGTILTMFVRKLVRPLPQSLAILLKFRTIHLFKS”, the protein production entry was “failed”.
Under “MDRNIDQELVSIIIPTHNRYESLIRAVKSCLHQSYKNIEVIIIDDNYSNVNLRNKIIHQFGYTNHRIKLILSNEDLGATNARNIGIKNSRGKYISFLDDDDEYMPDRILKLMACFKKSRMKNLALVCSYGIIIYPNGTREEEKTDFVGNPLFVQMVHNIAGTSFWLCKKEVLELINGFEKIDSHQDGVVLLKLLVQGYQIDIVREFLVNYYAHSKENGITGVTQKTINADEEYYNYCRKYFNLLSFNERILVTKKYYSLNIKRLLLIGDKCKALKVIKKAREEKIFNEFLF” stands “failed”; under “MDRNYSNWQSLTSLALFLLPFLFIGWLFDLFWPVTALALLGLVCWHYYYQQKLIKWLWQSRTLMPPSAPGSWSYIYDGIYRSQRRSQKRRKALARLLRRFREAAEALPDAAIVFRADGALLWSNKLAQFYFGLRWPDDAGQRLSNLIRHPEFYAYLNAGNFDEELTIPSPIRESLDIEIRIMPYSEDQFLLVARDVTQVKRLENLRREFVANVSHELKTPLTVLQGYLEMMDEPQQTPPAMLKKAVENMNAQSTRMANLVDQLLTLSRMETPSNDVFDHEVDMPALLEQLESEAKRLNEVKQHKIEFDVAPVRIYGKENLLRSAMQNLITNAINYTPDGGEIKVTWKTVAGGVEFSVKDNGKGIAAEHLPRLTERFYRVEDDRNSASGGTGLGLSIVKHAIEHHNSQLDINSSLEKGSRFSFRIPSGLLVS”, “failed”.
